Results on 1 molecule are retold here after article PMC11879458.

What all share (test): EMSA
(In general: In EMSA bound probe runs differently from free probe, usually more slowly.)

For series [1], the target named is ADR-2 (ΔdsRBD);ADBP-1 (Δ1-66 aa) (Caenorhabditis elegans;Caenorhabditis …, UniProt Q22618;G5EDW1 1-35+106-495;67-217, internal_change|del1-66).
For the next series, the target named is ADR-2;ADBP-1 (Caenorhabditis elegans;Caenorhabditis …, UniProt Q22618;G5EDW1 1-495;1-217, |).
The next series has as its target ADR-2 (Caenorhabditis elegans, UniProt Q22618 1-495).

B1: FAM-dsRNA 21 bp (dsRNA)
RNA 1: AAGGAUUACUGUAGUUUUCGC
RNA 2: GCGAAAACUACAGUAAUCCUU
Consider B1, for which the figures for the binding result (in series [1]; with ADR-2;ADBP-1; with ADR-2) were “no binding”, “binds” and “binds”, respectively.
